The target in this assay is CARD9 CARD fused to mEos3.1 (human). Put plainly: FRET or BRET; DAmFRET (Distributed Amphifluoric FRET) in living S. cerevisiae: protein fused to mEos3.1, GAL promoter, about 16 hr in galactose, part of mEos3.1 photoconverted to the acceptor form, AmFRET against expression level by flow cytometry.

Experimental findings from article PMC9342958 are described below.

Turning to “CARD9 CARD fused to mEos3.1 (domain or fragment)”, the threshold concentration of polymerisation was found to be 100 µM.
